Results on 94 variants are retold here after the supplement of paper PMC10567573.

B1: CPXM2 (parent)
chain: TASTKNCMVGYDMGATRCDFTLSK
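Further: lentivirally expressed fusions sorted by FACS into six bins by GFP to DsRed ratio, PSI derived from sequencing read proportions per bin multiplied by bin number.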

Variants of B1 are the subject of this data set. Kind of data set: protein stability index of a GFP-peptide fusion (GPS, HEK-293T) (PSI 1-6); higher = more stable. The conditions noted are these: c terminus: a fixed tail appended.
Take TASTKGCMVGYDMGATRCDFTLSK [N6G]: the protein stability index was 2.38.

TASTKFCMVGYDMGATRCDFTLSK [N6F]: the protein stability index came to 2.12.

With TASTKQCMVGYDMGATRCDFTLSK [N6Q], the protein stability index was found to be 2.72.

In the case of TASTKLCMVGYDMGATRCDFTLSK [N6L], the protein stability index was found to be 1.83.

As for TASTKTCMVGYDMGATRCDFTLSK [N6T], the protein stability index was determined as 3.1.

For the variant TASTKECMVGYDMGATRCDFTLSK [N6E], the protein stability index turned out to be 3.22.

Take TASTKHCMVGYDMGATRCDFTLSK [N6H]: the protein stability index is 2.04.

Consider TASTKVCMVGYDMGATRCDFTLSK [N6V], for which the protein stability index is 2.16.

Turning to TASTKRCMVGYDMGATRCDFTLSK [N6R], the protein stability index came out at 2.04.

Regarding TASTKKCMVGYDMGATRCDFTLSK [N6K], the protein stability index stood at 1.87.

Take TASTKWCMVGYDMGATRCDFTLSK [N6W]: the protein stability index turned out to be 2.34.

For the variant TASTKCCMVGYDMGATRCDFTLSK [N6C], the protein stability index was 1.62.

For the variant TASTKDCMVGYDMGATRCDFTLSK [N6D], the protein stability index was found to be 3.5.

For TASTKACMVGYDMGATRCDFTLSK [N6A], the protein stability index worked out at 2.69.

On to TASTKICMVGYDMGATRCDFTLSK [N6I], for which the protein stability index was determined as 1.89.

Regarding TASTKMCMVGYDMGATRCDFTLSK [N6M], the protein stability index is 2.34.

For TASTKSCMVGYDMGATRCDFTLSK [N6S], the protein stability index was found to be 2.66.

For TASTKYCMVGYDMGATRCDFTLSK [N6Y], the protein stability index amounted to 1.68.

Turning to TASTKPCMVGYDMGATRCDFTLSK [N6P], the protein stability index is 3.12.

Regarding MASTKNCMVGYDMGATRCDFTLSK [T1M], the protein stability index stood at 2.45.

With GASTKNCMVGYDMGATRCDFTLSK [T1G], the protein stability index was 1.88.

Regarding AASTKNCMVGYDMGATRCDFTLSK [T1A], the protein stability index worked out at 2.66.

PASTKNCMVGYDMGATRCDFTLSK [T1P]: the protein stability index was 2.1.

As to YASTKNCMVGYDMGATRCDFTLSK [T1Y], the protein stability index came to 1.71.

As to IASTKNCMVGYDMGATRCDFTLSK [T1I], the protein stability index was found to be 1.8.

As for NASTKNCMVGYDMGATRCDFTLSK [T1N], the protein stability index came to 2.51.

Turning to EASTKNCMVGYDMGATRCDFTLSK [T1E], the protein stability index was 3.37.

As for WASTKNCMVGYDMGATRCDFTLSK [T1W], the protein stability index worked out at 1.59.

Consider VASTKNCMVGYDMGATRCDFTLSK [T1V], for which the protein stability index worked out at 1.61.

With KASTKNCMVGYDMGATRCDFTLSK [T1K], the protein stability index was 2.05.

Regarding DASTKNCMVGYDMGATRCDFTLSK [T1D], the protein stability index came to 3.69.

Turning to CASTKNCMVGYDMGATRCDFTLSK [T1C], the protein stability index was 1.68.

For the variant SASTKNCMVGYDMGATRCDFTLSK [T1S], the protein stability index worked out at 2.86.

On to LASTKNCMVGYDMGATRCDFTLSK [T1L], for which the protein stability index was 2.18.

As for RASTKNCMVGYDMGATRCDFTLSK [T1R], the protein stability index was determined as 1.92.

Take QASTKNCMVGYDMGATRCDFTLSK [T1Q]: the protein stability index came out at 2.52.

As for HASTKNCMVGYDMGATRCDFTLSK [T1H], the protein stability index came out at 1.82.

Consider TASTLNCMVGYDMGATRCDFTLSK [K5L], for which the protein stability index is 2.29.

On to TASTTNCMVGYDMGATRCDFTLSK [K5T], for which the protein stability index is 2.35.

For TASTSNCMVGYDMGATRCDFTLSK [K5S], the protein stability index turned out to be 2.63.

For TASTPNCMVGYDMGATRCDFTLSK [K5P], the protein stability index came to 3.18.

Turning to TASTHNCMVGYDMGATRCDFTLSK [K5H], the protein stability index is 2.4.

TASTDNCMVGYDMGATRCDFTLSK [K5D]: the protein stability index was 3.25.

As for TASTRNCMVGYDMGATRCDFTLSK [K5R], the protein stability index was 1.59.

As for TASTVNCMVGYDMGATRCDFTLSK [K5V], the protein stability index was 2.42.

As for TASTYNCMVGYDMGATRCDFTLSK [K5Y], the protein stability index is 1.72.

In the case of TASTMNCMVGYDMGATRCDFTLSK [K5M], the protein stability index amounted to 2.38.

TASTANCMVGYDMGATRCDFTLSK [K5A]: the protein stability index amounted to 2.3.

Turning to TASTWNCMVGYDMGATRCDFTLSK [K5W], the protein stability index worked out at 1.97.

Regarding TASTGNCMVGYDMGATRCDFTLSK [K5G], the protein stability index worked out at 2.46.

Consider TASTCNCMVGYDMGATRCDFTLSK [K5C], for which the protein stability index turned out to be 1.74.

Consider TASTENCMVGYDMGATRCDFTLSK [K5E], for which the protein stability index worked out at 3.21.

In the case of TASTINCMVGYDMGATRCDFTLSK [K5I], the protein stability index was found to be 2.04.

TASTNNCMVGYDMGATRCDFTLSK [K5N]: the protein stability index amounted to 2.28.

As to TASTFNCMVGYDMGATRCDFTLSK [K5F], the protein stability index came out at 2.25.

With TASTQNCMVGYDMGATRCDFTLSK [K5Q], the protein stability index is 2.4.

Take TAKTKNCMVGYDMGATRCDFTLSK [S3K]: the protein stability index was determined as 1.99.

Regarding TAYTKNCMVGYDMGATRCDFTLSK [S3Y], the protein stability index is 1.88.

As to TAMTKNCMVGYDMGATRCDFTLSK [S3M], the protein stability index is 2.1.

Take TADTKNCMVGYDMGATRCDFTLSK [S3D]: the protein stability index turned out to be 3.57.

Regarding TAGTKNCMVGYDMGATRCDFTLSK [S3G], the protein stability index is 2.47.

For TAVTKNCMVGYDMGATRCDFTLSK [S3V], the protein stability index is 3.26.

For TATTKNCMVGYDMGATRCDFTLSK [S3T], the protein stability index is 2.4.

For the variant TACTKNCMVGYDMGATRCDFTLSK [S3C], the protein stability index worked out at 2.08.

Take TALTKNCMVGYDMGATRCDFTLSK [S3L]: the protein stability index came to 2.16.

As to TAHTKNCMVGYDMGATRCDFTLSK [S3H], the protein stability index amounted to 1.97.

With TAPTKNCMVGYDMGATRCDFTLSK [S3P], the protein stability index was 2.57.

As for TAQTKNCMVGYDMGATRCDFTLSK [S3Q], the protein stability index turned out to be 1.91.

As for TAWTKNCMVGYDMGATRCDFTLSK [S3W], the protein stability index was found to be 2.09.

In the case of TAETKNCMVGYDMGATRCDFTLSK [S3E], the protein stability index was 3.06.

Take TANTKNCMVGYDMGATRCDFTLSK [S3N]: the protein stability index came to 2.37.

Take TAITKNCMVGYDMGATRCDFTLSK [S3I]: the protein stability index worked out at 1.67.

As for TAATKNCMVGYDMGATRCDFTLSK [S3A], the protein stability index turned out to be 2.3.

In the case of TARTKNCMVGYDMGATRCDFTLSK [S3R], the protein stability index was 1.28.

In the case of TAFTKNCMVGYDMGATRCDFTLSK [S3F], the protein stability index was found to be 1.63.

With TASNKNCMVGYDMGATRCDFTLSK [T4N], the protein stability index is 2.4.

As to TASMKNCMVGYDMGATRCDFTLSK [T4M], the protein stability index turned out to be 2.58.

Consider TASCKNCMVGYDMGATRCDFTLSK [T4C], for which the protein stability index stood at 2.65.

Turning to TASQKNCMVGYDMGATRCDFTLSK [T4Q], the protein stability index came to 2.25.

TASSKNCMVGYDMGATRCDFTLSK [T4S]: the protein stability index turned out to be 1.93.

Take TASWKNCMVGYDMGATRCDFTLSK [T4W]: the protein stability index stood at 1.82.

With TASDKNCMVGYDMGATRCDFTLSK [T4D], the protein stability index was found to be 3.17.

Take TASRKNCMVGYDMGATRCDFTLSK [T4R]: the protein stability index was found to be 1.91.

TASPKNCMVGYDMGATRCDFTLSK [T4P]: the protein stability index was found to be 2.47.

As for TASYKNCMVGYDMGATRCDFTLSK [T4Y], the protein stability index amounted to 2.

Take TASEKNCMVGYDMGATRCDFTLSK [T4E]: the protein stability index was 2.12.

For the variant TASHKNCMVGYDMGATRCDFTLSK [T4H], the protein stability index was determined as 2.

For TASIKNCMVGYDMGATRCDFTLSK [T4I], the protein stability index came to 2.25.

With TASKKNCMVGYDMGATRCDFTLSK [T4K], the protein stability index amounted to 2.01.

For TASLKNCMVGYDMGATRCDFTLSK [T4L], the protein stability index was determined as 1.85.

Take TASFKNCMVGYDMGATRCDFTLSK [T4F]: the protein stability index worked out at 1.92.

TASAKNCMVGYDMGATRCDFTLSK [T4A]: the protein stability index was 2.23.

Consider TESTKNCMVGYDMGATRCDFTLSK [A2E], for which the protein stability index came out at 3.9.

For the variant TRSTKNCMVGYDMGATRCDFTLSK [A2R], the protein stability index was found to be 2.68.
